Laboratory results from US6713249B2, “Cell matrix plaques of initial bone formation” (Barnes-Jewish Hospital, priority 1998, dated 2004).

Tested on: αvβ3 integrin plaque-like cell/matrix areas in human preosteoblasts
Experiment: Immunocytochemical localization of cell surface αvβ3 integrin plaques in non-permeabilized cells
Assay type: cell-based
Conditions: bone marrow stromal cells in osteogenic medium with 40 ng/ml OP-1 for 48 hours, non-strained, no Triton X-100; compare FIG. 1C with FIG. 2C
Protocol: Bone marrow stromal cells grown to semi-confluence and then exposed to osteogenic medium containing 10 mM of β-glycerophosphate, 50 μg/ml ascorbic acid and 40 ng/ml of osteogenic protein OP-1(32) also referred to as bone morphogenetic protein-7 (BMP-7), for 48 hours were defined as preosteoblasts. These preosteoblast cultures are characterized by alkaline phosphatase activity of 80,000 nmole pNPP/min./μg protein, osteopontin expression, absence of osteocalcin expression, and mineralization after 14 days in osteogenic media. […]
Immunocytochemical analysis essentially was performed as previously described (34). […] The results were analyzed either on Zeiss Fluorescent Microscope (Axioscope) using a 63× oil immersion lens or on a Zeiss laser confocal microscope using a 63× lens. […]
In order to examine whether mechanical strain has a qualitative and/or quantitative effect on the localization and expression level of integrins, near-confluent human preosteoblasts and osteoprogenitors were strained on Flexcell Strain Apparatus, as described in Methods. […] In the presence of Triton X-100, which leads to cell permeabilization and thus, allows examination of the distribution of intracellular as well as cell surface molecules, the αvβ3 integrin, as detected by an anti-human αvβ3 antibody, was localized along actin fibers and in small, granular structures adjacent to actin fibers (FIGS. 1A, 1B, 2A and 2B). […]

B1: OP-1: osteogenic protein OP-1, also referred to as bone morphogenetic protein-7 (BMP-7), component of the osteogenic medium (protein, UniProt P18075 293-431, looked up)
Bone morphogenetic protein 7: STGSKQRSQNRSKTPKNQEALRMANVAENSSSDQRQACKKHELYVSFRDLGWQDWIIAPEGYAAYYCEGECAFPLNSYMNATNHAIVQTLVHFINPETVPKPCCAPTQLNAISVLYFDDSSNVILKKYRNMVVRACGCH
number of the plaque-like cell/matrix areas of the αvβ3 expression: stimulation
